Experimental data from patent publication US20210300999A1 (VANDERBILT UNIVERSITY, published 2021).

Tests used:
[1] = molecular target: SARS-CoV-2 Spike trimer (Table A) (SARS-CoV-2, UniProt P0DTC2 14-1208); experiment: ELISA, purified IgG
[2] = molecular target: T1, SARS-CoV-2 prefusion-stabilized trimeric spike ectodomain (S2Pecto) (SARS-CoV-2, UniProt P0DTC2 14-1213; P10104 458-484); experiment: ELISA on coated antigen
[3] = molecular target: T1, SARS-CoV-2 prefusion-stabilized …; experiment: hACE2 blocking ELISA on coated S2Pecto; competitor hACE2

Row | Binder | ELISA OD 450 nm [1] [OD 450 nm] | EC50 [2] [µg/mL] | IC50 [3] [µg/mL]
1 | COV2-2514 (antibody, V domains shown) VH: EVQLVESGGGVVRPGGSLRLSCAASGFIFDDYDMTWVRQAPGKGLEWVSGINWNGGSTGYADSVKGRFTISRDNAKNSLYLQMNSLRAEDTALYHCAVIMSPIPRYSGYDWAGDAFDIWGQGTMVTVSS VL: SSELTQDPAVSVALGQTVRITCQGDSLRSYYASWYQQKPGQVPILVIYDKNNRPSGIPDRFSGSSSGNTASLTITGAQAEDEADYYCNSRDSSGNAVVFGGGTKLTVL | 3.56 |  | 
2 | COV2-2094 (antibody, V domains shown) VH: EVQLVESGGGVVRPGGSLRLSCAASGFIFDDYDMTWVRQAPGKGLEWVSGINWNGGSTGYADSVKGRFTISRDNAKNSLYLQMNSLRAEDTALYHCAVIMSPIPRYSGYDWAGDAFDIWGQGTMVTVSS VL: SSELTQDPAVSVALGQTVRITCQGDSLRSYYASWYQQKPGQVPILVIYDKNNRPSGIPDRFSGSSSGNTASLTITGAQAEDEADYYCNSRDSSGNAVVFGGGTKLTVL | 4.3 | 0.0018 | 0.053
3 | COV2-3025 (antibody, V domains shown) VH: EVQLVQSGPEVKKPGTSVKVSCKASGFTFMSSAVQWVRQARGQRLEWIGWIVIGSGNTNYAQKFQERVTITRDMSTSTAYMELSSLRSEDTAVYYCAAPYCSSISCNDGFDIWGQGTMVTVSS VL: EIVLTQSPGTLSLSPGERVTLSCRASQSVSSSYLAWYQQKPGQAPRLLIYGASSRATGIPDRFSGSGSGTDFTLTISRLEPEDFAVYYCQHYGSSRGWTFGQGTKVEIK | 3.7 | 0.0011 | 0.041
